The results in this text go back to patent publication US20150273076A1, “SP1 POLYPEPTIDES, MODIFIED SP1 POLYPEPTIDES AND USES THEREOF” (Fulcrum SP Ltd., priority 2006, published 2015).

A short description of data set [1]: Resistance of SP1 complex to organic solvents. The class given is physicochemical. As to the method:
150 ul of 1 mg/ml samples in 10 mM sodium phosphate pH 7 were lyophilized overnight and resuspended in 150 μl organic solvents for 10 minutes. Following a 30 minutes speed vac the samples were resuspended in 150 μl water and analyzed by SDS-PAGE.
In order to further test the stability of SP1 and SP1 oligomeric complexes, wild type SP1 and the SP1 variant Cys2 SP1 were dissolved in buffer, exposed to organic solvents methanol and hexane, and analyzed by SDS-PAGE (FIG. 18).
In order to determine the stability of the SP1 complex in organic solvents, SP1 and Cys2 SP1-variant (SEQ ID NO: 3) were dissolved in organic solvents, dried, reconstituted with aqueous solvent, and separated on SDS-PAGE.

A short description of data set [2]: Fluorescein-amine complex formation (ultrafiltration, size exclusion HPLC). The class given is binding. The method, then: FIG. 9 is a histogram showing redox-dependent complex formation with small molecules by Cys2 SP1. Pure Cys 2 mutant (1.5 mg/ml in Phosphate buffered saline, pH=7.5 (PBS)) was incubated for 2 hours at room temp, with I mM fluorescein-amine with or without glutathione (reduced form, GSH 3 mM). Binding reaction was stopped by adding hydrogen peroxide (0.01%), followed by ultra filtration (using a 30 kD cutoff filter) and extensive wash. Absorption analysis was conducted at both 278 and 492 nm, and the results expressed as the 492/278 ratio. Note that in the absence of the reducing agent (GSH), retention of the flourescein-amine is negligible;
FIG. 10 is a graphic representation of the redox-dependent fluorescein amine complex formation by Cys2 SP1, compared to the recombinant SP1. Fluorescein-amine was incubated with pure SP1 or Cys2 SP1 mutant (1.5 mg/ml in PBS pH=7.5) in the absence or presence of DTT (10 mM). Binding reaction was stopped by adding hydrogen peroxide (0.01%), followed by ultra filtration (using 30 kD cutoff filter) and extensive wash. Samples were analyzed by Gel filtration HPLC, and detected at both 228 and 490 nm. Calculated data is shown on the right.
FIG. 11 is a histogram illustrating the concentration dependent complex formation with fluorescein-amine by Cys2 SP1. Huorescien-amine (10, 33, 100 or 333 mM) was incubated with Cys 2 SP1 or pure wild type SP1 in the presence of 10 mM DTT, and the bound and unbound fractions analyzed by ultra-filtration and HPLC as in FIG. 10.
Ultrafiltration was used for the detection of complex formation with the water soluble ligands FA and DOX which have a distinctive absorption properties and can be determined by spectroscopic measurements. […] Several additional washing cycles remove all remaining free FA and DOX, and the ligand-SP1 complex remains in the retained fraction.
Size exclusion chromatography is a common method for separation of molecules of different sizes under mild conditions and was employed to test FA and DOX complex formation under mild conditions. SP1 is eluted from the column after 7 min and is detected at 278 nm only, and free FA is eluted from the column (TSK G3000 SWXL, Tosohaas) after 16 min and is detected at 490 nm. The SP1-FA and SP1-DOX complexes also eluted at the same time but is detected also at 490 and 475 nm, respectively. DOX/SP1 ratio is determine from the standard curve obtained in solution.
5. Can complexed ligand be stabilized by association with the Cys2 SP1? Fluoresceine amine (FA): FA absorption peak is at 490 nm and at much lower extend at 278 nm (for a given FA concentration OD278/OD490=0.19)(see FIG. 31), when SP1 absorption peak is at 278 nm (see FIG. 30), and it is not detected at 490 nm. […] FA complexing with the Cys2 Sp1 variant was determined following incubation of FA and Cys2 SP1 variant in the absence or presence of GSH, followed by protein oxidation, ultra filtration (30 kDa cutoff) and exhaustive wash of the retained fraction with PBS with or without GSH. Absorption analysis at both 278 and 490 nm.
In general terms: Size exclusion chromatography separates by hydrodynamic size, large species first.

Data set [3] is described as follows: Immunogenicity: anti SP1 antibody production by ELISA. The class given is in vivo, C57B1 mice. The conditions noted are these: after repetitive injections. The text has this: In order to determine the degree of immunogenicity of SP1, anti SP1 antibody production in both PBS- and SP1-treated animals was detected using ELISA, using either directly immobilized SP1 or rabbit anti SP1 antibodies (second antibody was HRP conjugated anti mouse IgG). Serum obtained from both PBS- and SP1-treated animals had negligible anti-SP1 antibody reaction, with no difference between the two groups.
In general terms: In an ELISA, binding on a coated surface is turned into a signal by an enzyme label.

“wild type: stress related SP1 protein from aspen (Populus tremula), recombinant, SEQ ID NO:1”: in data set [1] (hexane-treated, data not shown), the “protease resistance after hexane treatment” value is “resistance to protease treatment”. For the same substance, the “resistance of oligomeric complex to organic solvents” value in data set [1] (methanol, hexane, SDS-PAGE) was “Predominantly high molecular weight oligomer complex form”. Besides, the “FA complexing at low ligand concentration” value in data set [2] (10 μM FA, 10 mM DTT) is listed as “no discernable FA complexing”. Moreover, the “complex formation with the FA marker” value in data set [2] (presence or absence of reducing agents, size exclusion chromatography) is reported as “hardly forms complexes”. In data set [3], the “anti-SP1 antibody reaction in serum” value is listed as “negligible”.
